Experiments:
cathepsin L = assay: Enzymatic inhibitory activity against cathepsin L (kinetic analysis, Z-Phe-Arg-AMC substrate); type: biochemical
Experimental: (§1) The inhibitory activity of Elstatin (polypeptide of the present invention) against papain and cathepsin L was measured by the method of Barrett, A. J. and Kirschke, H. described in Method Enzymol., 80, 535-561 (1981) using Bz--DL--Arg-2-naphthylamide or Z--Phe--Arg--MCA as a substrate (Bz, Z and AMC represent benzoyl, benzyloxycarbonyl, and 4-methyl-7-coumarylamide).
(§2) The active site of the enzyme was titrated using a cysteine protease inhibitor Ep-475 (L-3-carboxy-trans-2,3-epoxypropyl-leucylamide-(3-guanizino)butane). Papain which had undergone the titration of active site was used to determine the molarity of the inhibitor (Turk, B. et al. J. Biol. Chem. 268, 7323-7329 (1993)).
(§3) The rate of the reaction employing Z--Phe--Arg--AMC as a substrate was determined by the kinetic analysis of Elstatin, papain, and cathepsin L. Different concentrations of Elstatin and a substrate (papain: 5 μM, cathepsin L: 10 μM) were dissolved in 1.97 ml of a buffer solution described above. In the measurement of cathepsin L, 0.34M acetate buffer (pH 5.5) containing 2 mM dithiothreitol and 1.5 mM EDTA was used. The reaction was started by the addition of 30 μl of activated papain (final concentration: 380 pM) and cathepsin L (final concentration: 60 pM). […] The obtained data were analysed by a non-linear regression analysis of Morrison (Trends Biochem. Sci. 7, 102-105 (1982)).

cathepsin B = assay: Enzymatic inhibitory activity against cathepsin B (stopped assay); type: biochemical; conditions: cathepsin B 130 nM, Elstatin 50-750 nM, pH 6.0, 25° 20 minutes, Bz-DL-Arg-2-naphthylamide
Experimental: (§4) Equilibrium dissociation constant (Ki) of Elstatin and cathepsin B and H was determined using stopped assay method. In detail, cathepsin B (final concentration: 130 nM) and cathepsin H (final concentration: 25 nM) were incubated together with different concentrations of Elstatin (final concentration: 50-750 nM) in 0.1M phosphate buffer (pH 6.0) containing 2 mM of dithiothreitol and 1.5 mM of EDTA at 25° for 20 minutes. The residual activity was determined using Bz--DL--Arg-2-naphthylamide as a substrate conditions identical to those according to Barrett, A. J. and Kirschke, H. mentioned above. The value Ki was calculated using a method of Henderson (Biochem. J. 127, 321-333 (1972)).

[1] = tested on: unfractionated bone cells (osteoclastic bone resorption); assay: Bone resorption inhibitory action (pit formation on ivory slices, parathyroid hormone induced); type: cell-based, Sprague-Dawley rats; conditions: 50 nM human parathyroid hormone, 72 hours, FIG. 1
Experimental: A method proposed by McSheehy, P. M. J. and Chambers, T. J. in J Clin. Invest., 80, 425-429 (1987) was partly modified and applied.
Unfractionated bone cells were prepared from tibiae, femora and humeri of 1 to 2 day-old Sprague-Dawley rats. The bones were dissected into soft tissues in an ice-cold medium (pH 7.2) [α-minimum essential medium (α-MEM) (Flow Laboratories, McLean, Va.), supplemented with 100 IU/ml of benzylpenicillin] containing 20 mM N-2-hydroxyethyl-piperazine-N'-ethanesulfonic acid (HEPES). In order to prepare a bone cell preparation, long bones were minced with a pair of scissors in the same medium. Subsequently, the cell suspension was triturated with a wide bored plastic pipette. 200 μl of cell suspension (1×10^6 cells/ml) was added to each well of a 96 well-plate containing an ivory slice (thickness: 150 μm, diameter: 6 mm; ultrasonicated and disinfected with 75% ethanol), and the cells were incubated at 37° C. for 2 hours in a CO2 incubator (5% CO2 : 95% air). The slices were washed with α-MEM, and transferred to a HEPES-free fresh medium containing 10% FBS, each of test samples of various concentrations and 50 nM of human parathyroid hormone (Peninsula Laboratories Inc., Belmond, Calif.) and incubated for 72 hours. […] The total area of pits was measured under a microscope to detect possible osteoclastic bone resorption.

papain = assay: Enzymatic inhibitory activity against papain (kinetic analysis, Z-Phe-Arg-AMC substrate); type: biochemical; conditions: papain 380 pM, substrate Z-Phe-Arg-AMC 5 μM, 0.1M phosphate buffer pH 6.0
Experimental: as §1, §2, §3

cathepsin H = assay: Enzymatic inhibitory activity against cathepsin H (stopped assay); type: biochemical; conditions: cathepsin H 25 nM, Elstatin 50-750 nM, pH 6.0, 25° 20 minutes, Bz-DL-Arg-2-naphthylamide
Experimental: as §4

B1: Elstatin: Novel 103-residue polypeptide (Sequence No. 1) isolated from pig leucocyte cytosol; specifically inhibits cathepsin L (protein)
chain: MESEEMLAGGLTEPRPATPEIQEIANKVKPQLEEKTNKTYEKFEAIIYRSQVVAGTNYYIKVHVGGNNYVHIRVFQSLPHQEDPLKLIGYQVDKTKDDELTGF
In the case of B1, the Ki (cathepsin L; cathepsin L 60 pM, substrate Z-Phe-Arg-AMC 10 μM, 0.34M acetate buffer pH 5.5) is reported as 0.067 ± 0.036 nM, the “Specificity of inhibition among the cathepsin group” value (cathepsin L; cathepsin L versus cathepsins B and H) is reported as “specifically inhibits only cathepsin L among the members of the cathepsin group” and the Ki (cathepsin B) is reported as 335 ± 50 nM. For the same molecule, the “Bone resorption inhibitory action (total area of pits)” value [1] was “significantly potent bone resorption inhibitory action”, the Ki (papain) was 0.19 ± 0.097 nM and the Ki (cathepsin H) was 125 ± 7 nM.

— patent US5698519A, “Polypeptide specifically inhibiting cathepsin L” (Taiho Pharmaceutical Co., Ltd., priority 1993, dated 1997)
